Laboratory results as given in paper PMC8476561 (2021).

Target: SARS-CoV-2 RBD (wild type) (SARS-CoV-2, UniProt P0DTC2 319-541)
Assay: SPR

B1: Mouse angiotensin-converting enzyme 2 (receptor)
chain: SLTEENAKTFLNNFNQEAEDLSYQSSLASWNYNTNITEENAQKMSEAAAKWSAFYEEQSKTAQSFSLQEIQTPIIKRQLQALQQSGSSALSADKNKQLNTILNTMSTIYSTGKVCNPKNPQECLLLEPGLDEIMATSTDYNSRLWAWEGWRAEVGKQLRPLYEEYVVLKNEMARANNYNDYGDYWRGDYEAEGADGYNYNRNQLIEDVERTFAEIKPLYEHLHAYVRRKLMDTYPSYISPTGCLPAHLLGDMWGRFWTNLYPLTVPFAQKPNIDVTDAMMNQGWDAERIFQEAEKFFVSVGLPHMTQGFWANSMLTEPADGRKVVCHPTAWDLGHGDFRIKMCTKVTMDNFLTAHHEMGHIQYDMAYARQPFLLRNGANEGFHEAVGEIMSLSAATPKHLKSIGLLPSDFQEDSETEINFLLKQALTIVGTLPFTYMLEKWRWMVFRGEIPKEQWMKKWWEMKREIVGVVEPLPHDETYCDPASLFHVSNDYSFIRYYTRTIYQFQFQEALCQAAKYNGSLHKCDISNSTEAGQKLLKMLSLGNSEPWTKALENVVGARNMDVKPLLNYFQPLFDWLKEQNRNSFVGWNTEWSPYADQSIKVRISLKSALGANAYEWTNNEMFLFRSSVAYAMRKYFSIIKNQTVPFLEEDVRVSDLKPRVSFYFFVTSPQNVSDVIPRSEVEDAIRMSRGRINDVFGLNDNSLEFLGIHPTLEPPYQPPV
Kd: > 1000 µM
